Consider one molecule from PMC12523770.

The target in the assay is MyD88 (myeloid differentiation primary response 88), endogenous in mouse bone marrow-derived macrophages (mouse (endogenous in BMDMs)), P22366. The experiment in a line: cross-linking; WT BMDMs stimulated with 1 µg/mL poly(I:C) for the indicated times (or primed with LPS, positive control); cleared freeze-thaw lysate with 2 mM DSS, 2 h, room temperature; SDS-PAGE, anti-MyD88 blot. To be noted: remark: other sources report otherwise.

B1: MyD88 (myeloid differentiation primary response 88), endogenous in mouse bone marrow-derived macrophages, P22366 1-296 (natural protein)
chain: MSAGDPRVGSGSLDSFMFSIPLVALNVGVRRRLSLFLNPRTPVAADWTLLAEEMGFEYLEIRELETRPDPTRSLLDAWQGRSGASVGRLLELLALLDREDILKELKSRIEEDCQKYLGKQQNQESEKPLQVARVESSVPQTKELGGITTLDDPLGQTPELFDAFICYCPNDIEFVQEMIRQLEQTDYRLKLCVSDRDVLPGTCVWSIASELIEKRCRRMVVVVSDDYLQSKECDFQTKFALSLSPGVQQKRLIPIKYKAMKKDFPSILRFITICDYTNPCTKSWFWTRLAKALSLP
For orientation: stoichiometry N means the number of molecules, sites or subunits per partner or assembly. In turn, B1 had a stoichiometry N of 2.
